T1: N-cadherin expressed on human glioblastoma LN-229 cells (human, UniProt P19022 160-906)
T1 construct: whole, on cells
T1 sequence (looked up): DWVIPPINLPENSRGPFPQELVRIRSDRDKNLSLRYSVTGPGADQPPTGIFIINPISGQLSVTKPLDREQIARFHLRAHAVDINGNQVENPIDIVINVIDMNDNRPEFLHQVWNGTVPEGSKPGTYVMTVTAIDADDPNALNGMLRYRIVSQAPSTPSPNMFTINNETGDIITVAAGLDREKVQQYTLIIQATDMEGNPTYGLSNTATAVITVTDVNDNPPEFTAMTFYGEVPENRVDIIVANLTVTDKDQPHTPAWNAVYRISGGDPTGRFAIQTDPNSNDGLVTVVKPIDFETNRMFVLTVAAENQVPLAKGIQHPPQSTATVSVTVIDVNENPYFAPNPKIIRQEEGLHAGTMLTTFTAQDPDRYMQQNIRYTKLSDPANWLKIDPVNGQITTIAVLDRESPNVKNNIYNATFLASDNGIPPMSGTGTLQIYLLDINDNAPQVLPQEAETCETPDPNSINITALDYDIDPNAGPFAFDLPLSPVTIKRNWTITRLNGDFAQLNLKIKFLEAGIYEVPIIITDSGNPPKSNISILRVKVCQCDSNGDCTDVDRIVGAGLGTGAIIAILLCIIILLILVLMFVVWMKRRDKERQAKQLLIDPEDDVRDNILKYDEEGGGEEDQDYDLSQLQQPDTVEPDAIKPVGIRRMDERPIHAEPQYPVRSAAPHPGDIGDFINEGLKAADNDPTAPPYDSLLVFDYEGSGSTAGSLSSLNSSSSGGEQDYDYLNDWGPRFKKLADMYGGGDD

B1: human N-cadherin-Fc (R&D Systems) (Fc fusion, UniProt P19022 160-724, looked up)
chain: DWVIPPINLPENSRGPFPQELVRIRSDRDKNLSLRYSVTGPGADQPPTGIFIINPISGQLSVTKPLDREQIARFHLRAHAVDINGNQVENPIDIVINVIDMNDNRPEFLHQVWNGTVPEGSKPGTYVMTVTAIDADDPNALNGMLRYRIVSQAPSTPSPNMFTINNETGDIITVAAGLDREKVQQYTLIIQATDMEGNPTYGLSNTATAVITVTDVNDNPPEFTAMTFYGEVPENRVDIIVANLTVTDKDQPHTPAWNAVYRISGGDPTGRFAIQTDPNSNDGLVTVVKPIDFETNRMFVLTVAAENQVPLAKGIQHPPQSTATVSVTVIDVNENPYFAPNPKIIRQEEGLHAGTMLTTFTAQDPDRYMQQNIRYTKLSDPANWLKIDPVNGQITTIAVLDRESPNVKNNIYNATFLASDNGIPPMSGTGTLQIYLLDINDNAPQVLPQEAETCETPDPNSINITALDYDIDPNAGPFAFDLPLSPVTIKRNWTITRLNGDFAQLNLKIKFLEAGIYEVPIIITDSGNPPKSNISILRVKVCQCDSNGDCTDVDRIVGAGLGTGA
notes: also called N-cadherin substrate; purified N-cadherin substrate; not shown: Fc part of the bought fusion

Key:
[1] = biological target: B1; assay: cell-based or functional assay
[2] = biological target: T1, N-cadherin expressed on human …; assay: cell adhesion assay: LN-229 cells on spots of N-cadherin-Fc on nitrocellulose-coated dishes; this is the pair whose adhesion ADH-1 reduces
Description: Sterile 35 mm tissue culture dishes were coated with nitrocellulose in methanol and allowed to dry. Distinct spots, containing 50 ng of either purified Laminin (Sigma) or N-cadherin-Fc (R&D Systems), were made by spotting 10 μl of protein solution on the nitrocellulose-coated tissue culture dishes. Each dish contained two distinct spots of both Laminin and N-cadherin-Fc. After a 20-min incubation at room temperature, the protein solutions were aspirated. Remaining binding sites on the nitrocellulose were blocked with 2% BSA in PBS, and the dishes were rinsed with DMEM (Invitrogen).
4×10⁵ cells were added to each tissue culture dish in the presence of N-cadherin peptidomimetic small molecules, reconstituted in either DMSO or 0.3% cyclodextrin, and diluted in DMEM supplemented with 10% fetal bovine serum (HyClone). In the control experiments, either DMSO or cyclodextrin was added with LN-229 cells in the absence of the peptidomimetic small molecules. The cells were allowed to adhere to the protein substrate for 2 hours at 37° C., 5% CO₂. After incubation, the medium was removed and the tissue culture dishes were rinsed once with PBS to remove any unattached cells. Cells were fixed with 4% PFA, 0.01% glutaraldehyde in PEM buffer for 10 minutes at room temperature and rinsed once in PBS prior to imaging.

IC50 for inhibition of RGC neurite outgrowth [1] [µM]	binding result [2]	Binder
2330		Ac-CHAVC-NH2 (also: cyclic peptide, cyclising bond not given here) [ADH-1 (short cyclic HAV peptide N-Ac-CHAVC-NH2)]
	binds	B1
